doi:10.1101/2023.11.02.23297943 (medRxiv, 2023)

Target: the molecule itself
Assay: cross-linking

Row | Protein | binding result | percent of dimers formed, compared to wild-type | percent of tetramers formed, compared to wild-type | percent of trimers formed, compared to wild-type
1 | mitochondrial single-stranded DNA-binding protein 1 (SSBP1), wild-type recombinant protein (natural protein, human, UniProt Q04837 17-148, looked up) ESETTTSLVLERSLNRVHLLGRVGQDPVLRQVEGKNPVTIFSLATNEMWRSGDSEVYQLGDVSQKTTWHRISVFRPGLRDVAYQYVKKGSRIYLEGKIDYGEYMDKNNVRRQATTIIADNIIFLSDQTKEKE | binds | – | – | –
2 | SSBP1 p.Arg91Gln mutant, recombinant protein (natural protein, human, UniProt Q04837 17-148, looked up) ESETTTSLVLERSLNRVHLLGRVGQDPVLRQVEGKNPVTIFSLATNEMWRSGDSEVYQLGDVSQKTTWHRISVFQPGLRDVAYQYVKKGSRIYLEGKIDYGEYMDKNNVRRQATTIIADNIIFLSDQTKEKE | – | 37.4 % of wild-type | 20.5 % of wild-type | 12.7 % of wild-type
